B1: GDHwt: wild-type glutamate dehydrogenase of E. coli, N-terminal 6×His-tag (protein, listed as Escherichia coli)
chain: MDQTYSLESFLNHVQKRDPNQTEFAQAVREVMTTLWPFLEQNPKYRQMSLLERLVEPERVIQFRVVWVDDRNQIQVNRAWRVQFSSAIGPYKGGMRFHPSVNLSILKFLGFEQTFKNALTTLPMGGGKGGSDFDPKGKSEGEVMRFCQALMTELYRHLGADTDVPAGDIGVGGREVGFMAGMMKKLSNNTACVFTGKGLSFGGSLIRPEATGYGLVYFTEAMLKRHGMGFEGMRVSVSGSGNVAQYAIEKAMEFGARVITASDSSGTVVDESGFTKEKLARLIEIKASRDGRVADYAKEFGLVYLEGQQPWSLPVDIALPCATQNELDVDAAHQLIANGVKAVAEGANMPTTIEATELFQQAGVLFAPGKAANAGGVATSGLEMAQNAARLGWKAEKVDARLHHIMLDIHHACVEHGGEGEQTNYVQGANIAGFVKVADAMLAQGVI
modifications: N-terminal 6xHis tag
notes: wild-type glutamate dehydrogenase of E. coli, N-terminal 6×His-tag
B2: IlvABS: biosynthetic threonine dehydratase IlvA from Bacillus subtilis (protein, listed as Bacillus subtilis)
chain: MKPLLKENSLIQVKDILKAHQNVKDVVIHTPLQRNDRLSERYECNIYLKREDLQVVRSFKLRGAYHKMKQLSSEQTENGVVCASAGNHAQGVAFSCKHLGIHGKIFMPSTTPRQKVSQVELFGKGFIDIILTGDTFDDAYKSAAECCEAESRTFIHPFDDPDVMAGQGTLAVEILNDIDTEPHFLFASVGGGGLLSGVGTYLKNVSPDTKVIAVEPAGAASYFESNKAGHVVTLDKIDKFVDGAAVKKIGEETFRTLETVVDDILLVPEGKVCTSILELYNECAVVAEPAGALSVAALDLYKDQIKGKNVVCVVSGGNNDIGRMQEMKERSLIFEGLQHYFIVNFPQRAGALREFLDEVLGPNDDITRFEYTKKNNKSNGPALVGIELQNKADYGPLIERMNKKPFHYVEVNKDEDLFHLLI
B3: GDH1 (protein, UniProt P07262 2-454, looked up)
NADP-specific glutamate …: SEPEFQQAYEEVVSSLEDSTLFEQHPEYRKVLPIVSVPERIIQFRVTWENDKGEQEVAQGYRVQYNSAKGPYKGGLRFHPSVNLSILKFLGFEQIFKNSLTGLDMGGGKGGLCVDLKGRSNNEIRRICYAFMRELSRHIGQDTDVPAGDIGVGGREIGYLFGAYRSYKNSWEGVLTGKGLNWGGSLIRPEATGYGLVYYTQAMIDYATNGKESFEGKRVTISGSGNVAQYAALKVIELGGTVVSLSDSKGCIISETGITSEQVADISSAKVNFKSLEQIVNEYSTFSENKVQYIAGARPWTHVQKVDIALPCATQNEVSGEEAKALVAQGVKFIAEGSNMGSTPEAIAVFETARSTATGPSEAVWYGPPKAANLGGVAVSGLEMAQNSQRITWTSERVDQELKRIMINCFNECIDYAKKYTKDGKVLPSLVKGANIASFIKVSDAMFDQGDVF
B4: IlvE: branched-chain amino acid aminotransferase of E. coli (protein, UniProt P0AB80 2-309, looked up)
Branched-chain-amino-acid …: TTKKADYIWFNGEMVRWEDAKVHVMSHALHYGTSVFEGIRCYDSHKGPVVFRHREHMQRLHDSAKIYRFPVSQSIDELMEACRDVIRKNNLTSAYIRPLIFVGDVGMGVNPPAGYSTDVIIAAFPWGAYLGAEALEQGIDAMVSSWNRAAPNTIPTAAKAGGNYLSSLLVGSEARRHGYQEGIALDVNGYISEGAGENLFEVKDGVLFTPPFTSSALPGITRDAIIKLAKELGIEVREQVLSRESLYLADEVFMSGTAAEITPVRSVDGIQVGEGRCGPVTKRIQQAFFGLFTGETEDKWGWLDQVNQ
B5: TdcB: catabolic threonine dehydratase of E. coli (protein, listed as Escherichia coli)
chain: MHITYDLPVAIDDIIEAKQRLAGRIYKTGMPRSNYFSERCKGEIFLKFENMQRTGSFKIRGAFNKLSSLTDAEKRKGVVACSAGNHAQGVSLSCAMLGIDGKVVMPKGAPKSKVAATCDYSAEVVLHGDNFNDTIAKVSEIVEMEGRIFIPPYDDPKVIAGQGTIGLEIMEDLYDVDNVIVPIGGGGLIAGIAVAIKSINPTIRVIGVQSENVHGMAASFHSGEITTHRTTGTLADGCDVSRPGNLTYEIVRELVDDIVLVSEDEIRNSMIALIQRNKVVTEGAGALACAALLSGKLDQYIQNRKTVSIISGGNIDLSRVSQITGFVDA

Key:
[1] = Enzymatic assay of purified glutamate dehydrogenases, amination of 2-ketobutyrate (NADPH consumption at 340 nm); assay type: biochemical; settings: 100 mM Tris pH 8.0, 0.2M NH4Cl, 0.2 mM NADPH
Method: To characterize the enzymes, both the wild-type glutamate dehydrogenase GDHwt and mutant GDH2 were added an N-terminal 6×His-tag, overexpressed, and purified through Ni-NTA columns. The kinetic parameters for […] of 2-ketoglutarate (cognate substrate) and 2-ketoisovalerate or 2-ketobutyrate (nonnatural substrates) were determined by monitoring the consumption of NADPH at 340 nm (FIG. 6). […] The increase in binding affinity is very helpful since high concentration of 2-ketobutyrate interferes with cellular metabolic activities (see, e.g. Daniel et al. (1983) Mol Gen Genet 190(3):452-458). On the basis of the crystallographic model for the active site of GDH, amino group of K92 hydrogenbonds to the γ-carboxyl group of 2-ketoglutarate and determines the substrate specificity (see, e.g. Stillman et al. (1993) J Mol Biol 234(4):1131-1139). Mutation of lysine to valine increases the hydrophobic character of the binding pocket, which explains why the specificity constant kcat/Km of GDH2 towards 2-ketobutyrate is 50-fold higher than that towards the natural substrate 2-ketoglutarate.
Both gene fragments encoding wildtype glutamate dehydrogenase and GDH2 were amplified using primers GDHbamfwd and GDHbamrev. After digestion with BamHI, the gene fragments were inserted into expression plasmid pQE9 (Qiagen). The resulting expression plasmids were transformed into E. coli strain BL21(DE3) harboring pREP4 (Qiagen). Cells were inoculated from an overnight preculture at 1/100 dilution and grown in 200 mL 2XYT rich medium containing 50 mg/L ampicillin and 25 mg/L kanamycin. At an OD600 of 0.6, recombinant proteins were expressed by induction of the cell cultures with 0.1 mM IPTG, followed by incubation at 30° C. overnight. Overexpressed proteins were then purified with Ni-nitrilotriacetic acid columns. Protein concentration was determined by measuring UV absorbance at 280 nm.
Enzymatic assay was performed in assay buffer (100 mM Tris buffer, pH 8.0) containing 0.2M NH4Cl, 0.2 mM NADPH, and various concentrations of 2-ketoacids. The reactions were started by adding the purified enzymes, and the consumption of NADPH was monitored at 340 nm (extinction coefficient, 6.22 mM^−1 cm^−1). Kinetic parameters (kcat and Km) were determined by fitting initial velocity data to the Michaelis-Menten equation using Origin.

threonine = test: Production of L-homoalanine from glucose by E. coli overexpressing GDH2 and threonine dehydratases; assay type: cell-based, Escherichia coli; settings: ATCC98082, overexpressed in combination with GDH2
From the text: FIG. 5A is a graph with horizontal axis labels defined as follows: (1) BW25113; (2) BW25113 with overexpression of GDH2; (3) ATCC98082 with overexpression of TdcB & GDH2; (4) ATCC98082 with overexpression of IlvAEc & GDH2; (5) ATCC98082 with overexpression of IlvABS & GDH2; and (6) ATCC98082 (ArhtA) with overexpression of IlvABS and GDH2. FIG. 5B is a graph showing the yield of L-homolalanine biosynthesis from glucose. The error bars represent standard deviations from three independent experiments.
To test the production of L-homoalanine from glucose, E. coli strain ATCC98082 harboring plasmid pZS_thrO (see, e.g. Zhang et al. (2008) Proc Natl Acad Sci USA 105(52):20653-20658) was transformed with pZElac_tdcB_GDH, pZElac_ilvAEC_GDH and pZElac_ilvABS_GDH. These transformants were subjected to fermentation using the following production medium: 30 g glucose, 17 g (NH4)2SO4, 2 g KH2PO4, 1 g MgSO4.7H2O, 2 g yeast extract, 0.1 g L-valine, 0.01 g FeSO4:7H2O and 0.01 g MnSO4:7H2O per liter. Antibiotics were added appropriately (ampicillin 50 mg/L, spectinomycin 25 mg/L). Overnight 2XYT culture were diluted 25× into fermentation medium and 0.1 mM isopropyl-b-D-thiogalactoside (IPTG) was added to induce protein expression. In shake flask experiments, the culture medium was buffered by addition of 30 g/L CaCO3. Cultures were incubated in 33° C. shaker (250 rpm) for 40-50 h until glucose was consumed.

2-ketobutyrate = test: Conversion of fed 2-ketobutyrate to L-homoalanine by E. coli BW25113 overexpressing amination enzymes; assay type: cell-based, Escherichia coli; design: L-homoalanine produced: unit not given here; settings: for L-homoalanine produced: 10 g/L 2-ketobutyrate fed, M9 medium, 37° C., 24 h
Method: FIG. 2 is a graph comparing different amination enzymes on the production of L-homoalanine. E. coli cultures were inoculated in M9 medium with addition of 10 g/L 2-ketobutyrate and incubated at 37° C. for 24 h. The horizontal axis labels are defined as follows: (A) Wild-type E. coli BW25113; overexpression of (B) transaminase IlvE (C) valine dehydrogenase from Streptomyces avermitilis; (D) valine dehydrogenase from Streptomyces coelicolor, (E) valine dehydrogenase from Streptomyces fradiae; (F) evolved glutamate dehydrogenase GDH1; and (G) evolved glutamate dehydrogenase GDH2. The error bars represent standard deviations from three independent experiments.
In order to check if any endogenous transaminase of E. coli can work on 2-ketobutyrate, we fed 10 g/L 2-ketobutyrate to wildtype E. coli strain BW25113 growing in M9 medium. […] Since the branched-chain amino acid aminotransferase IlvE (see, e.g. Inoue K, et al. (1988) J Biochem 104(5):777-784) is likely to be a functional candidate, we cloned and overexpressed IlvE in BW25113, which increased the production of L-homoalanine to […] (FIG. 2B). […] However, high concentration of glutamate is needed to drive the reaction equilibrium because transamination is a reversible reaction process. Even under such extreme conditions, the conversion rate of transaminating 2-ketobutyrate to L-homoalanine is only 32%.
To test the conversion of 2-ketobutyrate to L-homoalanine, plasmids pZElac_IlvE, pZElac_VDHsa, pZElac_VDHsc, pZElac_VDHsf, pZElac_GDH and pZElac_GDH2 were transformed into BW25113. The transformants were inoculated in M9 medium with 5 g/L yeast extract, 10 g/L ammonium hydrochloride and 20 g/L glucose. Once OD reached ˜1.0, 10 g/L 2-ketobutyrate plus 0.1 mM IPTG were added and incubated at 37° C. for 24 h. Amino acids were quantified as o-phthaldialdehyde (OPA) derivatives by HPLC analysis.

Molecule	L-homoalanine produced from glucose (threonine) [g/L]	threonine remaining in fermentation medium (threonine) [g/L]	L-homoalanine produced (2-ketobutyrate; BW25113 transformant)	other results
B1	–	–	–	kcat towards 2-ketobutyrate [1]: 47.2 s⁻¹; Km ([1]; read-out: Km towards 2-ketobutyrate): 35.4 mM
B2	3.8	2.5	–	–
B3	–	–	1.6	–
B4	–	–	1.2	L-homoalanine titer (2-ketobutyrate; BW25113 transformant, 10 g/L 2-ketobutyrate plus additional 10 g/L glutamate): 3.2 g/L; conversion rate of 2-ketobutyrate to L-homoalanine (2-ketobutyrate; with 10 g/L glutamate as amino donor): 32%
B5	0.18	3.7	–	glutamate accumulated (threonine): 4 g/L
